Assays:
Assay in all cases: cell-based or functional assay
[1] = target: murine LFA-3 (murine CD48) (murine) (UniProt P18181)
[2] = target: murine Intercellular adhesion molecule-1 (ICAM-1; CD54) (murine) (UniProt P13597)
[3] = target: murine B7-1 (CD80) (murine) (UniProt Q00609)
Sequence of UniProt Q00609 (Q00609 38-306): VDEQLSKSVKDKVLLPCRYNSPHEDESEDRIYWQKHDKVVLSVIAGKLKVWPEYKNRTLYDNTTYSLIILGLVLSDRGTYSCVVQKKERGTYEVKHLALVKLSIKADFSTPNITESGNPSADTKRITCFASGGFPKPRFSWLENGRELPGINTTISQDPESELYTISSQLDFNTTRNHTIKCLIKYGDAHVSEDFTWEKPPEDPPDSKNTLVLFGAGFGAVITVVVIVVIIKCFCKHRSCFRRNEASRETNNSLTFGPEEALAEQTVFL

Sequence of UniProt P18181 (P18181 23-217): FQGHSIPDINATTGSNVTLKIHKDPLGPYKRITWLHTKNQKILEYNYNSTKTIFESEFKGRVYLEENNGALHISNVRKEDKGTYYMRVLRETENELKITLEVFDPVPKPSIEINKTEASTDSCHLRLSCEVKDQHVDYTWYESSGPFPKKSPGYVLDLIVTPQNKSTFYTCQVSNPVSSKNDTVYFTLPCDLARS
Sequence of UniProt P13597 (P13597 28-537): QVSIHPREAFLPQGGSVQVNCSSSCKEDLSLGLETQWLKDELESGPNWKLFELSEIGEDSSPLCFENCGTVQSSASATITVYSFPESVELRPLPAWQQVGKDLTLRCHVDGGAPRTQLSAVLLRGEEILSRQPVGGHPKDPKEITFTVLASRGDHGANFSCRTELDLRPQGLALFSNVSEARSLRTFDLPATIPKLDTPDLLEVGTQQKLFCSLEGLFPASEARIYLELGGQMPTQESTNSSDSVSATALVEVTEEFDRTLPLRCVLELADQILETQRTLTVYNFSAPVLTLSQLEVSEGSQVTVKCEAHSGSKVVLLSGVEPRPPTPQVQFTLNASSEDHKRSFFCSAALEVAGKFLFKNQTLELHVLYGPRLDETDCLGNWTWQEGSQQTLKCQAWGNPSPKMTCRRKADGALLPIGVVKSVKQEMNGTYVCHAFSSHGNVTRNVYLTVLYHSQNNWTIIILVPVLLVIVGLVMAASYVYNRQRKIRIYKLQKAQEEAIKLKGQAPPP

Hamster anti-murine CD48 (BCM-1; clone HM48-1) (antibody)
reduction of the increased T-cell proliferation supported by MC38/LFA-3 stimulator cells with Con A [1]: 98%

Hamster anti-murine CD54 (ICAM-1; clone 3E2) (antibody)
reduction of the increased T-cell proliferation supported by MC38/ICAM-1 stimulator cells with Con A [2]: 88%

Hamster anti-murine CD80 (B7-1; clone 16-10A1) (antibody)
inhibition of the increased T-cell proliferation supported by MC38/B7-1 stimulator cells with Con A [3]: 83%
